From US20210253725A1 (BIONTECH, published 2021)

T1: CD134 expressed on the cell surface of HT1080_OX40 cells (human, UniProt P43489 29-277)
T1 sequence (looked up): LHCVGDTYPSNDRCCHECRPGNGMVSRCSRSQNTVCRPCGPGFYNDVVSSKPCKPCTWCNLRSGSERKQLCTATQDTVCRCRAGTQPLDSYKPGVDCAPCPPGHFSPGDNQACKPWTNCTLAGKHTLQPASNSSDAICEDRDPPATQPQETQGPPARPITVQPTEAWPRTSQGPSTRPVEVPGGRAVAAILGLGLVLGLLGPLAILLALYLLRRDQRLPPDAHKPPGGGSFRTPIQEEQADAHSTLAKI

T2: CD134 protein (His-tagged, Sino Biological Inc. 10481-H08H) (human, UniProt P43489 29-216)
T2 construct: bought protein coated on ELISA plates; also called OX40; TNFRSF4; not shown: His tag
T2 sequence (looked up): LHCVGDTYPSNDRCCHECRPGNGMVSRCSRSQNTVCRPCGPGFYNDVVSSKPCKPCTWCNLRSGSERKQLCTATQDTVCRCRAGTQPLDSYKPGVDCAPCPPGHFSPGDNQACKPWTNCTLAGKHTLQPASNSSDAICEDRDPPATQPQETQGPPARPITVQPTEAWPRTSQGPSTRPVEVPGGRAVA

T3: CD27 expressed on the cell surface of HT1080_CD27 cells (human, UniProt P26842 20-260)
T3 sequence (looked up): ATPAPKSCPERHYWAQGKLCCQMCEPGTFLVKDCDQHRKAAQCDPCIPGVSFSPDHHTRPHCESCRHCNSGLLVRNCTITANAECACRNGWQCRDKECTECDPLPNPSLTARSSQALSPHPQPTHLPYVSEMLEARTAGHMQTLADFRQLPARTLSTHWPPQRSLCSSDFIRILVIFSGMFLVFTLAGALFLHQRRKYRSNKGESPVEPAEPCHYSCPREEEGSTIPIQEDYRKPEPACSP

T4: CD27 protein (His-tagged, Sino Biological Inc. 10039-H08B1) (human, UniProt P26842 20-192)
T4 construct: bought protein coated on ELISA plates; also called TNFRSF7; not shown: His tag
T4 sequence (looked up): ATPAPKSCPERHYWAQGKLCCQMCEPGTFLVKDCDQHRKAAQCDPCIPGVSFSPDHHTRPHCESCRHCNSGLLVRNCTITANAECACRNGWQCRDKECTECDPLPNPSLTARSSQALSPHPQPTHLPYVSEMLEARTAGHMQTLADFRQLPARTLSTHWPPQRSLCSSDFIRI

B1: P018.S.05.A.G05 (antibody, V domains shown)
VH: QSVEESGGRLVTPGTPLTLTCTVSGIDLSNHGMGWFRQGPGKGLEWIGIIYIDGGASYASWVNGRFTISKTSTTVDLKITSPTTEDTATYFCARGIPSDGDSSYYYFNLWGQGTLVTVAS
VL: DVVMTQTPASVEAAVGGTVTIKCQASQSVYNKYLSWFQQKPGQPPKLLIYRASTLESGVSSRFKGSGSGTEFTLTISDLESADAATYYCQNNNGAGDNTDYTFGGGTEVVVK
notes: V regions on human Ig constant parts; also called AB134_18
B2: P018.S.09.A.A02 (antibody, V domains shown)
VH: QSVEESGGRLVTPGTPLTLTCTASGFSLSNFYMSWVRQAPGKGLEWIGIISTGGSAYYASWAKGRFTSSKTSTTVDLQITSPTTEDTATYFCARGSGTDGAWLYYGIDLWGPGTLVTVSS
VL: DVVMTQTPASVEAAVGGTVTIKCQASENIGHALAWYQQKPGQPPKLLIYRTSTLASGVPSRFSGSGSGTQFSLTISDLDSADAATYFCQINYGGGSGGYFAFGGGTEVVVK
notes: V regions on human Ig constant parts; also called AB27_143
B3: P018.S.10.A.A03 (antibody, V domains shown)
VH: QSLEESGGRLVTPGTPLTLTCTVSGIDLSSYAMGWVRQAPGKGLEWIGTISTISNTYYASWANGRFTISKTSTTVDLKMTSLTASDTATYFCARGASNTINDYFNLWGQGTLVTVSS
VL: DIVMTQTPASVSEPVGGTVTIKCQASQSVGNYLAWYQQKPGQPPKLLIYDASNLASGVSSRFKGSGFATEFILTISDLESTDAATYYCHSYVYSSGNVYNGFGGGTEVVVK
notes: V regions on human Ig constant parts; also called AB27_163
B4: P018.S.10.A.B03 (antibody, V domains shown)
VH: QSLEESGGRLVTPGTPLTLTCTASGFSLSSYDMGWVRQAPGKGLEWIGIISSSGSTYYASWAKGRFTISKTSSTTVDLKMTSLTTEDTATYFCARTSLDGNLWGQGTLVTVSS
VL: AFEMTQTPSSVSEPVGGTVTIKCQASQSIYNYLSWYQQKPGQPPKLLIYDASALASGVPSRFKGSGSGTDFTLTISDLESADAATYYCQQDYSVSDVDNSFGGGTEVVVK
notes: V regions on human Ig constant parts; also called AB27_168
B5: P018.S.10.A.C02 (antibody, V domains shown)
VH: QSVEESGGRLVTPGTPLTLTCTVSGIDLSNYAMSWVRQTPGKGLEWIGAIGIGGNTYYASWAKGRFTISRTSTMVDLKVASPTPEDTATYFCARHAGAGVVNWLDLWGQGTLVTVSS
VL: DVVMTQTPASVSEPVGGTVTIKCQASQSIGSNLAWYQQKPGQPPKLLIYAASDLASGVPSRFSGSGSGTEFTLTISGVQSDDAATFYCQTYGSGSFSSFNLFGGGTEVVVK
notes: V regions on human Ig constant parts; also called AB27_171
B6: P018.S.03.A.E03 (antibody, V domains shown)
VH: QSVEESGGRLVTPGTPLTLTCTVSGFSLSTYGMSWVRQAPGKGLEWIGIIDAGDSPYYASWVKGRFTISKTSTTVDLKITSLTTEDTATYFCARIAGSNHGPFSLWGPGTLVTVSS
VL: DVVMTQTPASVSEPVGGTVTINCQASEFISNYLAWYQQKPGQPPKLLIYGASTLASGVPSRFSGSGSGTQFTLTISDLESDDAATYYCQCTAYGSGYVGFGGGTEVVVK
notes: V regions on human Ig constant parts; also called AB134_4
B7: P018.S.12.A.G05 (antibody, V domains shown)
VH: QSVEESGGRLVTPGTPLTLTCTVSGFSLSTYGMSWVRQAPGKGLEWIGIIDGGDSPYYASWAEGRFTISKTSTTVDLKITSPTTEDTATYFCARIAGSNHGPFDLWGPGTLVTVSS
VL: DVVMTQTPASVSEPVGGTVTINCQASEFISNYLAWYQQKPGQPPKLLIYGASTLASGVPSRFKGSGSGTDFTLTISDLESADAATYYCQCTAYGSSYVGFGGGTEVVVK
notes: V regions on human Ig constant parts; also called AB134_87
B8: P018.S.10.A.F04 (antibody, V domains shown)
VH: QSVEESGGRLVTPGTPLTLTCTASGFYLSSHYMSWVRQAPGKGLEWIGIIYATGIASYANWAKGRFTISKTSTTVSLKMTSPTTEDTATYFCARYDSQDYYGYGNLWGPGTLVTVSS
VL: AYDMTQTPASVEVAVGGTVTIKCQASQNIYNNLAWYQQKPGQRPKLLIYRASTLASGVSSQFKGSGSGTEYTLTISGVESADAATYYCQQGYSVHDVYNTFGGGTEVVVK
notes: V regions on human Ig constant parts; also called AB27_180
B9: P018.S.04.A.F05 (antibody, V domains shown)
VH: QSVEESGGRLVTPGTPLTLTCTVSGIDLSSYTMGWVRQAPGKGLEYIGIIGTSGTTYYSSWAKGRFTISKTSTTVDLKITSPTTEDTATYFCARLGDDYGDFHFNLWGQGTLVTVSS
VL: DLVMTQTPASVSEPVGGTVTIKCQASQNIGNYLAWYQQKPGQPPKLLIYAASNLASGVSSRFKGSGSGTEYTLTISDLESADAATYYCQCTYYDSTYFAFGGGTEVVVK
notes: V regions on human Ig constant parts; also called AB134_12
B10: P018.S.09.A.A06 (antibody, V domains shown)
VH: QEQLKESGGGLVQPGESLTLTCTASGFSLSSYYMSWVRQAPGKGLEWIGMISTGGSAYYANWARGRFTISRTSTTVDLKVTSLTTEDTATYFCARGWRYEDLWGQGTLVTVSS
VL: AQVLTQTPSPVSAAVGSTVTINCQSSQTVYNNNYLAWYQQKPGQPPKLLIYDASNLASGVSSRFSGSGSGTQFTLTISDLESDDAATYYCQGTYYDNAWYHTFGGGTEVVVK
notes: V regions on human Ig constant parts; also called AB27_146
B11: P018.S.05.A.F05 (as anti-CD27 antibody) (antibody, V domains shown)
VH: QSVEESGGRLVTPGTPLTLTCTVSGFSLSNYYMTWVRQAPGKGLEYIGIIGSGVSTYYANWAKGRFTISKASSTTVDLKMTSPTTEDTATYFCARDMYVGNWGDWGLWGQGTLVTVSS
VL: AYDMTQTPASVEVAVGGTVTIKCQASQSISNNLNWYQQKPGQPPKLLIYSVSTLASGVPSRFKGSGSGTDYTLTISGVESVDAATYYCQQDYRIGDLDSAFGGGTEVVVK
notes: V regions on human Ig constant parts; also called AB27_92
B12: P018.S.04.A.G05 (antibody, V domains shown)
VH: QSVEESGGRLVTPGTPLTLTCTVSGFSLSTYYMSWVRQAPGKSLEWIGCIHGDDGSTWYASWVQGRFTISKASTTVDLQIASPTTEDTATYFCARGLPYWPNDGDFNLWGQGTLVTVSS
VL: TQVLTQTPSPVSAAVGGTVSISCQSSQSVYNNNWLSWFQQKPGQPPKLLVYGASTLASGVPSRFKGSGSGTQFTLTISDLESDDAATYYCAGGYYTTSDNGFGGGTEVVVK
notes: V regions on human Ig constant parts; also called AB134_14

Assays:
[1] = biological target: T1, CD134 expressed on the cell surface of …; experiment: cell-based or functional assay
[2] = biological target: T1, CD134 expressed on the cell surface of …; experiment: cell-based or functional assay; remark: listed apart in the source
[3] = biological target: T1, CD134 expressed on the cell surface of …; experiment: HT1080_OX40 cells, imaging; also: test concentration or dose not given here
[4] = biological target: T2, CD134 protein (His-tagged, Sino …); experiment: ELISA, coated His-tagged CD134; also: test concentration or dose not given here
[5] = biological target: T3, CD27 expressed on the cell surface of …; experiment: cell-based or functional assay
[6] = biological target: T3, CD27 expressed on the cell surface of …; experiment: cell-based or functional assay; remark: listed apart in the source
[7] = biological target: T3, CD27 expressed on the cell surface of …; experiment: HT1080_CD27 cells, imaging; also: test concentration or dose not given here
[8] = biological target: T4, CD27 protein (His-tagged, Sino …); experiment: ELISA, coated His-tagged CD27; also: test concentration or dose not given here
For Functional assay Cross-linked by F(ab′)2 fragment IL-8 in this document: test concentration or dose not given here.
For Functional assay IL-8 in this document: test concentration or dose not given here.

Row | Binder | Functional assay Cross-linked by F(ab′)2 fragment IL-8 [1] [abs. corr.] | Functional assay IL-8 [1] [abs. corr.] | EC 50 (IL-8 release, cross-linked) [2] [µg/mL] | Cellular binding assay [RFU] [3] [RFU] | ELISA [abs. corr.] [4] [abs. corr.] | Functional assay Cross-linked by F(ab′)2 fragment IL-8 [5] [abs. corr.] | Functional assay IL-8 [5] [abs. corr.] | EC 50 (IL-8 release, cross-linked) [6] [µg/mL] | Cellular binding assay [RFU] [7] [RFU] | ELISA [abs. corr.] [8] [abs. corr.]
1 | B1 | 2.39 | 2.62 | 0.975 | 463 | 2.62 | – | – | – | – | –
2 | B2 | – | – | – | – | – | 2.46 | 0.839 | 0.144 | 155 | 2.95
3 | B3 | – | – | – | – | – | 2.06 | 1.02 | 0.513 | 198 | 2.81
4 | B4 | – | – | – | – | – | 2.07 | -0.032 | 1.94 | 19 | 2.24
5 | B5 | – | – | – | – | – | 2.28 | 0.631 | 0.414 | 238 | 2.9
6 | B6 | 2.54 | 0.314 | 0.529 | 419 | 2.72 | – | – | – | – | –
7 | B7 | 2.19 | 0.13 | 0.745 | 570 | 2.04 | – | – | – | – | –
8 | B8 | – | – | – | – | – | 2.32 | 0.273 | 1.27 | 133 | 2.89
9 | B9 | 2.4 | 0.181 | 0.225 | 368 | 2.44 | – | – | – | – | –
10 | B10 | – | – | – | – | – | 2.25 | 2.19 | 0.387 | 113 | 3.09
11 | B11 | – | – | – | – | – | 2.21 | 0.189 | 0.376 | 11 | 2.31
12 | B12 | 2.41 | -0.022 | 0.669 | 451 | 2.87 | – | – | – | – | –
